Laboratory results taken from article PMC2844433, “Polo-Like Kinase 2-Dependent Phosphorylation of NPM/B23 on Serine 4 Triggers Centriole Duplication” (PLoS ONE, 2010).

Target: T1, Recombinant His-tagged NPM/B23 (UniProt P06748 1-294)
T1 construct: NPM/B23 (Nucleophosmin), bacterially produced, unphosphorylated; also called His-NPM/B23; His-tagged NPM/B23 WT; source: E. coli BL21, purified (Ni-NTA agarose)
Assay: pull-down; in vitro binding assay: Flag-Plk2 fragments immunoprecipitated from 293T cells, bound to Protein G sepharose, incubated with 15 µg recombinant His-NPM/B23 in PBS with 0.05% NP-40 for 2 h at 4°C; Western blot
Settings: both partners purified

T1 sequence (P06748 whole entry): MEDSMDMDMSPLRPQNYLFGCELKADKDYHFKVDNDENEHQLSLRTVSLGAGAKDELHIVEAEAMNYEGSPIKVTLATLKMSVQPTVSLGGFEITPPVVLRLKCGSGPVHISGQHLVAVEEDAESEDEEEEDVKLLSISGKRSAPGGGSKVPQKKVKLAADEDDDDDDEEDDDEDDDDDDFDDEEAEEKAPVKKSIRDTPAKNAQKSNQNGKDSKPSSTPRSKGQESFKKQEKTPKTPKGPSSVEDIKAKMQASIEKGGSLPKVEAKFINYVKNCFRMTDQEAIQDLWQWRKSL

- binding result: binds
B1: Flag-Plk2-(aa 590–685) (domain or fragment, UniProt Q9NYY3 590-685, looked up)
chain: PSVTDIRRPRLYLLQWLKSDKALMMLFNDGTFQVNFYHDHTKIIICSQNEEYLLTYINEDRISTTFRLTTLLMSGCSSELKNRMEYALNMLLQRCN
notes: also called second Polo-box of Plk2; source: 293T, transfected, immunoprecipitated with anti-Flag antibodies
